This assay addresses GST-F2F3 (GST fusion of CPSF30 zinc fingers F2F3, amino acids 61-121) (UniProt P08515 1-218 = GST).

B1: M186 mutant NS1A protein (other)
chain: MDSNTVSSFQVDCFLWHVRKQVVDQELGDAPFLDRLRRDQKSLRGRGSTLGLNIEAATHVGKQIVEKILKEESDEALKMTMASTPASRYITDMTIEELSRDWFMLMPKQKVEGPLCIRIDQAIMDKNIMLKANFSVIFDRLETLILLRAFTEEGAIVGEISPLPSFPGHTIEDVKNAIGVLIGRFLRYDNTVRVSKTLQRFAWGSSNENGRPPLTPKQKRKMARTARSKVRRDKMAD
modifications: 35S-methionine label (in vitro translated)
For the molecule B1, the binding result was “no binding”.
